Results from patent publication US20230357348A1 (AstraZeneca / MedImmune, published 2023).
Starred links: 1 amine or outer side, 2 acyl side, 3 side chain; linkers in the order of their positions; H or OH if unused. Non-standard residues stand in square brackets, D forms with d. Groups on a side chain read outwards from the residue. No end group written: not given here. *: point of attachment. C20 diacid = O=C(O)CCCCCCCCCCCCCCCCCCC(=O)*; C18 diacid = O=C(O)CCCCCCCCCCCCCCCCC(=O)*; γGlu = O=C(O)[C@H](CCC(=O)[*:2])N[*:1]; αMeF = C[C@](N)(Cc1ccccc1)C(=O)O; AEEA = NCCOCCOCC(=O)O; Aib = CC(C)(N)C(=O)O

B1: Peptide 456 (peptide)
peptide: H[Aib]QGTFTSDVSK[αMeF]LDRK([AEEA-AEEA-γGlu-C20 diacid])RAQDFVRWLL[Aib]E-NH2
modifications: N-terminus assumed
SMILES: CC(C)C[C@H](NC(=O)[C@H](Cc1c[nH]c2ccccc12)NC(=O)[C@H](CCCNC(=N)N)NC(=O)[C@@H](NC(=O)[C@H](Cc1ccccc1)NC(=O)[C@H](CC(=O)O)NC(=O)[C@H](CCC(N)=O)NC(=O)[C@H](C)NC(=O)[C@H](CCCNC(=N)N)NC(=O)[C@H](CCCCNC(=O)COCCOCCNC(=O)COCCOCCNC(=O)CC[C@H](NC(=O)CCCCCCCCCCCCCCCCCCC(=O)O)C(=O)O)NC(=O)[C@H](CCCNC(=N)N)NC(=O)[C@H](CC(=O)O)NC(=O)[C@H](CC(C)C)NC(=O)[C@](C)(Cc1ccccc1)NC(=O)[C@H](CCCCN)NC(=O)[C@H](CO)NC(=O)[C@@H](NC(=O)[C@H](CC(=O)O)NC(=O)[C@H](CO)NC(=O)[C@@H](NC(=O)[C@H](Cc1ccccc1)NC(=O)[C@@H](NC(=O)CNC(=O)[C@H](CCC(N)=O)NC(=O)C(C)(C)NC(=O)[C@@H](N)Cc1c[nH]cn1)[C@@H](C)O)[C@@H](C)O)C(C)C)C(C)C)C(=O)N[C@@H](CC(C)C)C(=O)NC(C)(C)C(=O)N[C@@H](CCC(=O)O)C(N)=O
B2: Peptide 459 (peptide)
peptide: H[Aib]QGTFTSDVSK[αMeF]LDKK([AEEA-AEEA-γGlu-C18 diacid])RAQDFVRWLLA
modifications: not fully specified (C-terminus)
B3: Peptide 460 (peptide)
peptide: H[Aib]QGTFTSDVSK[αMeF]LDKK([AEEA-AEEA-γGlu-C20 diacid])RAQDFVRWLLAE-NH2
B4: Peptide 452 (peptide)
peptide: H[Aib]QGTFTSDVSK[αMeF]LDKK([AEEA-AEEA-γGlu-C20 diacid])RALDFVRWLL[Aib]E-NH2
modifications: N-terminus assumed
SMILES: CC(C)C[C@H](NC(=O)[C@H](C)NC(=O)[C@H](CCCNC(=N)N)NC(=O)[C@H](CCCCNC(=O)COCCOCCNC(=O)COCCOCCNC(=O)CC[C@H](NC(=O)CCCCCCCCCCCCCCCCCCC(=O)O)C(=O)O)NC(=O)[C@H](CCCCN)NC(=O)[C@H](CC(=O)O)NC(=O)[C@H](CC(C)C)NC(=O)[C@](C)(Cc1ccccc1)NC(=O)[C@H](CCCCN)NC(=O)[C@H](CO)NC(=O)[C@@H](NC(=O)[C@H](CC(=O)O)NC(=O)[C@H](CO)NC(=O)[C@@H](NC(=O)[C@H](Cc1ccccc1)NC(=O)[C@@H](NC(=O)CNC(=O)[C@H](CCC(N)=O)NC(=O)C(C)(C)NC(=O)[C@@H](N)Cc1c[nH]cn1)[C@@H](C)O)[C@@H](C)O)C(C)C)C(=O)N[C@@H](CC(=O)O)C(=O)N[C@@H](Cc1ccccc1)C(=O)N[C@H](C(=O)N[C@@H](CCCNC(=N)N)C(=O)N[C@@H](Cc1c[nH]c2ccccc12)C(=O)N[C@@H](CC(C)C)C(=O)N[C@@H](CC(C)C)C(=O)NC(C)(C)C(=O)N[C@@H](CCC(=O)O)C(N)=O)C(C)C
B5: Peptide 454 (peptide)
peptide: H[Aib]QGTFTSDVSK[αMeF]LDKK([AEEA-AEEA-γGlu-C20 diacid])RAQDFVRWLEA[Aib]G-NH2
modifications: N-terminus assumed
SMILES: CC(C)C[C@H](NC(=O)[C@H](Cc1c[nH]c2ccccc12)NC(=O)[C@H](CCCNC(=N)N)NC(=O)[C@@H](NC(=O)[C@H](Cc1ccccc1)NC(=O)[C@H](CC(=O)O)NC(=O)[C@H](CCC(N)=O)NC(=O)[C@H](C)NC(=O)[C@H](CCCNC(=N)N)NC(=O)[C@H](CCCCNC(=O)COCCOCCNC(=O)COCCOCCNC(=O)CC[C@H](NC(=O)CCCCCCCCCCCCCCCCCCC(=O)O)C(=O)O)NC(=O)[C@H](CCCCN)NC(=O)[C@H](CC(=O)O)NC(=O)[C@H](CC(C)C)NC(=O)[C@](C)(Cc1ccccc1)NC(=O)[C@H](CCCCN)NC(=O)[C@H](CO)NC(=O)[C@@H](NC(=O)[C@H](CC(=O)O)NC(=O)[C@H](CO)NC(=O)[C@@H](NC(=O)[C@H](Cc1ccccc1)NC(=O)[C@@H](NC(=O)CNC(=O)[C@H](CCC(N)=O)NC(=O)C(C)(C)NC(=O)[C@@H](N)Cc1c[nH]cn1)[C@@H](C)O)[C@@H](C)O)C(C)C)C(C)C)C(=O)N[C@@H](CCC(=O)O)C(=O)N[C@@H](C)C(=O)NC(C)(C)C(=O)NCC(N)=O
B6: Peptide 465 (peptide)
peptide: H[Aib]QGTFTSDVSK[αMeF]LDLK([AEEA-AEEA-γGlu-γGlu-C18 diacid])RAQDFVQWLL[Aib]T-OH
modifications: N-terminus assumed
SMILES: CC(C)C[C@H](NC(=O)[C@H](CC(=O)O)NC(=O)[C@H](CC(C)C)NC(=O)[C@](C)(Cc1ccccc1)NC(=O)[C@H](CCCCN)NC(=O)[C@H](CO)NC(=O)[C@@H](NC(=O)[C@H](CC(=O)O)NC(=O)[C@H](CO)NC(=O)[C@@H](NC(=O)[C@H](Cc1ccccc1)NC(=O)[C@@H](NC(=O)CNC(=O)[C@H](CCC(N)=O)NC(=O)C(C)(C)NC(=O)[C@@H](N)Cc1c[nH]cn1)[C@@H](C)O)[C@@H](C)O)C(C)C)C(=O)N[C@@H](CCCCNC(=O)COCCOCCNC(=O)COCCOCCNC(=O)CC[C@H](NC(=O)CC[C@H](NC(=O)CCCCCCCCCCCCCCCCC(=O)O)C(=O)O)C(=O)O)C(=O)N[C@@H](CCCNC(=N)N)C(=O)N[C@@H](C)C(=O)N[C@@H](CCC(N)=O)C(=O)N[C@@H](CC(=O)O)C(=O)N[C@@H](Cc1ccccc1)C(=O)N[C@H](C(=O)N[C@@H](CCC(N)=O)C(=O)N[C@@H](Cc1c[nH]c2ccccc12)C(=O)N[C@@H](CC(C)C)C(=O)N[C@@H](CC(C)C)C(=O)NC(C)(C)C(=O)N[C@H](C(=O)O)[C@@H](C)O)C(C)C
B7: Peptide 453 (peptide)
peptide: H[Aib]QGTFTSDVSK[αMeF]LDKK([AEEA-AEEA-γGlu-C20 diacid])RAQDFVRWLLE[Aib]G-NH2
B8: Peptide 455 (peptide)
peptide: H[Aib]QGTFTSDVSK[αMeF]LDKK([AEEA-AEEA-γGlu-γGlu-C20 diacid])RAQDFVRWLL[Aib]E-NH2
modifications: N-terminus assumed
SMILES: CC(C)C[C@H](NC(=O)[C@H](Cc1c[nH]c2ccccc12)NC(=O)[C@H](CCCNC(=N)N)NC(=O)[C@@H](NC(=O)[C@H](Cc1ccccc1)NC(=O)[C@H](CC(=O)O)NC(=O)[C@H](CCC(N)=O)NC(=O)[C@H](C)NC(=O)[C@H](CCCNC(=N)N)NC(=O)[C@H](CCCCNC(=O)COCCOCCNC(=O)COCCOCCNC(=O)CC[C@H](NC(=O)CC[C@H](NC(=O)CCCCCCCCCCCCCCCCCCC(=O)O)C(=O)O)C(=O)O)NC(=O)[C@H](CCCCN)NC(=O)[C@H](CC(=O)O)NC(=O)[C@H](CC(C)C)NC(=O)[C@](C)(Cc1ccccc1)NC(=O)[C@H](CCCCN)NC(=O)[C@H](CO)NC(=O)[C@@H](NC(=O)[C@H](CC(=O)O)NC(=O)[C@H](CO)NC(=O)[C@@H](NC(=O)[C@H](Cc1ccccc1)NC(=O)[C@@H](NC(=O)CNC(=O)[C@H](CCC(N)=O)NC(=O)C(C)(C)NC(=O)[C@@H](N)Cc1c[nH]cn1)[C@@H](C)O)[C@@H](C)O)C(C)C)C(C)C)C(=O)N[C@@H](CC(C)C)C(=O)NC(C)(C)C(=O)N[C@@H](CCC(=O)O)C(N)=O
B9: Peptide 462 (peptide)
peptide: H[Aib]QGTFTSDVSK[αMeF]LDTK([AEEA-AEEA-γGlu-C18 diacid])RARDFVQWLLEAG-OH
modifications: N-terminus assumed
SMILES: CC(C)C[C@H](NC(=O)[C@H](CC(C)C)NC(=O)[C@H](Cc1c[nH]c2ccccc12)NC(=O)[C@H](CCC(N)=O)NC(=O)[C@@H](NC(=O)[C@H](Cc1ccccc1)NC(=O)[C@H](CC(=O)O)NC(=O)[C@H](CCCNC(=N)N)NC(=O)[C@H](C)NC(=O)[C@H](CCCNC(=N)N)NC(=O)[C@H](CCCCNC(=O)COCCOCCNC(=O)COCCOCCNC(=O)CC[C@H](NC(=O)CCCCCCCCCCCCCCCCC(=O)O)C(=O)O)NC(=O)[C@@H](NC(=O)[C@H](CC(=O)O)NC(=O)[C@H](CC(C)C)NC(=O)[C@](C)(Cc1ccccc1)NC(=O)[C@H](CCCCN)NC(=O)[C@H](CO)NC(=O)[C@@H](NC(=O)[C@H](CC(=O)O)NC(=O)[C@H](CO)NC(=O)[C@@H](NC(=O)[C@H](Cc1ccccc1)NC(=O)[C@@H](NC(=O)CNC(=O)[C@H](CCC(N)=O)NC(=O)C(C)(C)NC(=O)[C@@H](N)Cc1c[nH]cn1)[C@@H](C)O)[C@@H](C)O)C(C)C)[C@@H](C)O)C(C)C)C(=O)N[C@@H](CCC(=O)O)C(=O)N[C@@H](C)C(=O)NCC(=O)O
B10: Peptide 451 (peptide)
peptide: H[Aib]QGTFTSDVSK[αMeF]LDKK([AEEA-AEEA-γGlu-C20 diacid])RARDFVLWLL[Aib]E-NH2
modifications: N-terminus assumed
SMILES: CC(C)C[C@H](NC(=O)[C@H](Cc1c[nH]c2ccccc12)NC(=O)[C@H](CC(C)C)NC(=O)[C@@H](NC(=O)[C@H](Cc1ccccc1)NC(=O)[C@H](CC(=O)O)NC(=O)[C@H](CCCNC(=N)N)NC(=O)[C@H](C)NC(=O)[C@H](CCCNC(=N)N)NC(=O)[C@H](CCCCNC(=O)COCCOCCNC(=O)COCCOCCNC(=O)CC[C@H](NC(=O)CCCCCCCCCCCCCCCCCCC(=O)O)C(=O)O)NC(=O)[C@H](CCCCN)NC(=O)[C@H](CC(=O)O)NC(=O)[C@H](CC(C)C)NC(=O)[C@](C)(Cc1ccccc1)NC(=O)[C@H](CCCCN)NC(=O)[C@H](CO)NC(=O)[C@@H](NC(=O)[C@H](CC(=O)O)NC(=O)[C@H](CO)NC(=O)[C@@H](NC(=O)[C@H](Cc1ccccc1)NC(=O)[C@@H](NC(=O)CNC(=O)[C@H](CCC(N)=O)NC(=O)C(C)(C)NC(=O)[C@@H](N)Cc1c[nH]cn1)[C@@H](C)O)[C@@H](C)O)C(C)C)C(C)C)C(=O)N[C@@H](CC(C)C)C(=O)NC(C)(C)C(=O)N[C@@H](CCC(=O)O)C(N)=O

What follows are binders tested against human GLP-1 receptor (hGLP-1R) (human, UniProt P43220 24-463) (assay: cell-based or functional assay).

| hGLP-1R EC50 (pM) | Binder |
| --- | --- |
| 133 | B1 |
| 32.7 | B2 |
| 117 | B3 |
| 495 | B4 |
| 173 | B5 |
| 485 | B6 |
| 170 | B7 |
| 127 | B8 |
| 39.5 | B9 |
| 895 | B10 |

What follows are binders tested against human glucagon receptor (hGCGR) (human, UniProt P47871 26-477) (assay: cell-based or functional assay).
human glucagon receptor (hGCGR), sequence (P47871 26-477): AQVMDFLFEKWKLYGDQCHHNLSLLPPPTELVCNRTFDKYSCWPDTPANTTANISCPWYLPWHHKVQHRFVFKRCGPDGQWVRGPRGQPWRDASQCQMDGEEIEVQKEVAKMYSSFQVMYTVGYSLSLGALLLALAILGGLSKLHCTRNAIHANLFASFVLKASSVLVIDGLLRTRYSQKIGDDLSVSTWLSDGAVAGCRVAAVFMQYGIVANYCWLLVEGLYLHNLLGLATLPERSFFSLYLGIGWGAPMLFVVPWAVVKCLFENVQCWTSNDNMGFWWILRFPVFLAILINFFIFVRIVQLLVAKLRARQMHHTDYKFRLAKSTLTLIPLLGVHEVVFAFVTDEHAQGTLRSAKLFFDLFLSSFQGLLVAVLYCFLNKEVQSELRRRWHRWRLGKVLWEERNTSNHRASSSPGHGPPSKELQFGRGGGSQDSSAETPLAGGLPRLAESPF

| hGluc-R EC50 (pM) | Binder |
| --- | --- |
| 80.3 | B1 |
| 36.9 | B2 |
| 66.5 | B3 |
| 151 | B4 |
| 274 | B5 |
| 436 | B6 |
| 162 | B7 |
| 114 | B8 |
| 89.2 | B9 |
| 503 | B10 |
